These results are taken from article PMC3898768, “The TBC/RabGAP Armus Coordinates Rac1 and Rab7 Functions during Autophagy” (Developmental Cell, 2013).

Test [1] concerns the target T1, cleaved active Rac1 (Rac^Q61L) (UniProt P63000 1-192, Q61L). The test can be described thus: pull-down; purified proteins: GST-Armus 1-550 incubated with cleaved Rac Q61L with or without increasing amounts of MBP-LC3 (molar ratios shown in the figure); probed for Rac1 or LC3. To be noted: both partners purified.
Test [2] addresses T1, cleaved active Rac1 (Rac^Q61L). Nature of the test: pull-down; purified proteins: GST fusion protein (GST-LC3, or GST-Armus 1-550 wild-type or mutants) incubated with cleaved Rac Q61L; probed for Rac1. As to conditions: both partners purified.

B1: GST-Armus 1-550 wild-type (domain or fragment)
chain: MEGAGENAPESSSSAPGSEESARDPQVPPPEEESGDCARSLEAVPKKLCGYLSKFGGKGPIRGWKSRWFFYDERKCQLYYSRTAQDANPLDSIDLSSAVFDCKADAEEGIFEIKTPSRVITLKAATKQAMLYWLQQLQMKRWEFHNSPPAPPATPDAALAGNGPVLHLELGQEEAELEEFLCPVKTPPGLVGVAAALQPFPALQNISLKHLGTEIQNTMHNIRGNKQAQGTGHEPPGEDSPQSGEPQREEQPLASDASTPGREPEDSPKPAPKPSLTISFAQKAKRQNNTFPFFSEGITRNRTAQEKVAALEQQVLMLTKELKSQKELVKILHKALEAAQQEKRASSAYLAAAEDKDRLELVRHKVRQIAELGRRVEALEQERESLAHTASLREQQVQELQQHVQLLMDKNHAKQQVICKLSEKVTQDFTHPPDQSPLRPDAANRDFLSQQGKIEHLKDDMEAYRTQNCFLNSEIHQVTKIWRKVAEKEKALLTKCAYLQARNCQVESKYLAGLRRLQEALGDEASECSELLRQLVQEALQWEAGEASSD
notes: Armus (TBC1D2A, isoform 1; UniProt Q9BYX2-1), residues 1-550; also called GST-Armus_(1–550) wild-type (WT); source: 'purified proteins'
As to B1, the binding result in test [1] is “binds”.

B2: GST-Armus 1-550 W142A,Y510A (domain or fragment)
chain: MEGAGENAPESSSSAPGSEESARDPQVPPPEEESGDCARSLEAVPKKLCGYLSKFGGKGPIRGWKSRWFFYDERKCQLYYSRTAQDANPLDSIDLSSAVFDCKADAEEGIFEIKTPSRVITLKAATKQAMLYWLQQLQMKRAEFHNSPPAPPATPDAALAGNGPVLHLELGQEEAELEEFLCPVKTPPGLVGVAAALQPFPALQNISLKHLGTEIQNTMHNIRGNKQAQGTGHEPPGEDSPQSGEPQREEQPLASDASTPGREPEDSPKPAPKPSLTISFAQKAKRQNNTFPFFSEGITRNRTAQEKVAALEQQVLMLTKELKSQKELVKILHKALEAAQQEKRASSAYLAAAEDKDRLELVRHKVRQIAELGRRVEALEQERESLAHTASLREQQVQELQQHVQLLMDKNHAKQQVICKLSEKVTQDFTHPPDQSPLRPDAANRDFLSQQGKIEHLKDDMEAYRTQNCFLNSEIHQVTKIWRKVAEKEKALLTKCAYLQARNCQVESKALAGLRRLQEALGDEASECSELLRQLVQEALQWEAGEASSD
notes: Armus (TBC1D2A, isoform 1; UniProt Q9BYX2-1), residues 1-550, double point mutant; also called Armus^W142A,Y510A; source: 'purified proteins'
B2: in test [2], the binding result is “binds”.
